Results: patent US20090181459A1 (published 2009)

T1: mouse glucocorticoid-induced tumor necrosis factor receptor (mGITR), expressed on the cell surface (mouse, UniProt O35714 20-228)
T1 sequence (looked up): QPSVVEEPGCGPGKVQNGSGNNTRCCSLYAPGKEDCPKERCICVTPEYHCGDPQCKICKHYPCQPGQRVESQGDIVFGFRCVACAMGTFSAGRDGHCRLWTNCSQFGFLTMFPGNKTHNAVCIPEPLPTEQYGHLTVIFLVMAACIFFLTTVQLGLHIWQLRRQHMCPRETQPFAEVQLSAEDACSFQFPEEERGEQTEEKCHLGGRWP

B1: mouse glucocorticoid-induced TNF receptor ligand (mGITRL), expressed on the cell surface (ligand)
chain: MEEMPLRESSPQRAERCKKSWLLCIVALLLMLLCSLGTLIYTSLKPTAIESCMVKFELSSSKWHMTSPKPHCVNTTSDGKLKILQSGTYLIYGQVIPVDKKYIKDNAPFVVQIYKKNDVLQTLMNDFQILPIGGVYELHAGDNIYLKFNSKDHIQKNNTYWGIILMPDLPFIS

Key:
[1] = target: mouse glucocorticoid-induced TNF receptor ligand (mGITRL), expressed on the cell surface (mouse) (UniProt Q7TS55); assay: flow cytometry, peritoneal cells gated on F4/80+; isotype control background
[2] = target: mouse glucocorticoid-induced tumor necrosis factor receptor (mGITR), expressed on the cell surface (mouse) (UniProt O35714); assay: flow cytometry on Th2 clone R2.4; isotype control background
[3] = target: mouse glucocorticoid-induced TNF receptor ligand (mGITRL), expressed on the cell surface (mouse) (UniProt Q7TS55); assay: flow cytometry, spleen cells gated on F4/80+ macrophages; isotype control background
[4] = target: mouse glucocorticoid-induced tumor necrosis factor receptor (mGITR), expressed on the cell surface (mouse) (UniProt O35714); assay: flow cytometry on Th1 clone R2.2; isotype control background
[5] = target: mouse glucocorticoid-induced TNF receptor ligand (mGITRL), expressed on the cell surface (mouse) (UniProt Q7TS55); assay: flow cytometry, spleen cells gated on B220+ B cells; isotype control background
[6] = target: T1, mouse glucocorticoid-induced tumor …; assay: cell-based or functional assay

Molecule	MFI [1]	Median fluorescence intensity (MFI) [2]	Median fluorescence intensity (MFI) [3]	Median fluorescence intensity (MFI) [4]	Median fluorescence intensity (MFI) [5]	Luciferase activity (NF-kB reporter plasmid), 48-h incubation [6] [fold]
isotype control antibody (rat anti-canine CD8 antibody, IgG1)	255	50.5	25.4	35.2	7.7	–
B1	–	–	–	–	–	6
